Patent US20070244040

T1: 6×His-Livin α
T1 chain: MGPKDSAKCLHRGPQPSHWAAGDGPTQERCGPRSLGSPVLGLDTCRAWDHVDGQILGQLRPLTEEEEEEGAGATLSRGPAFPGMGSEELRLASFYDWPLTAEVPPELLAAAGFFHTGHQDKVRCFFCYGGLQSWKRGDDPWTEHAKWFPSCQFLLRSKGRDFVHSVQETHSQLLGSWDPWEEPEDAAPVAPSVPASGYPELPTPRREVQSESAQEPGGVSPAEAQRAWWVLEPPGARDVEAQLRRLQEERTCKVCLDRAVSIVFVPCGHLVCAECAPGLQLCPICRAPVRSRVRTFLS

T2: 6×His-Livin β
T2 chain: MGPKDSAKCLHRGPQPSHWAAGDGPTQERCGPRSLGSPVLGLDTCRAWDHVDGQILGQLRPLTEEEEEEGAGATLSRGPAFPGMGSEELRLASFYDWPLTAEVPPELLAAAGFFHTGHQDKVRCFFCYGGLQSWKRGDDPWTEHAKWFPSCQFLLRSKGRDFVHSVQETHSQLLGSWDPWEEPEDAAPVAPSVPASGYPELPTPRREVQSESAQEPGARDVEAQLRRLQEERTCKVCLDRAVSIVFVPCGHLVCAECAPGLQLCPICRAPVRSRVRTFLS

T3: Livin α
T3 chain: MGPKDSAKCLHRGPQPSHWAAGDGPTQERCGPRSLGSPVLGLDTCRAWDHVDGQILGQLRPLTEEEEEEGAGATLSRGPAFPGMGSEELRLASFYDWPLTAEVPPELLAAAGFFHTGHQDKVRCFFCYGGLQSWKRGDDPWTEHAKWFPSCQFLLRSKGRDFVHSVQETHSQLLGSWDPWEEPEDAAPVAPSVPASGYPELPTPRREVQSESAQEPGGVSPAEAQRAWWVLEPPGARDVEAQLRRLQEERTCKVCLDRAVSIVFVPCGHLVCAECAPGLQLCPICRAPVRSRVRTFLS

T4: Livin β
T4 chain: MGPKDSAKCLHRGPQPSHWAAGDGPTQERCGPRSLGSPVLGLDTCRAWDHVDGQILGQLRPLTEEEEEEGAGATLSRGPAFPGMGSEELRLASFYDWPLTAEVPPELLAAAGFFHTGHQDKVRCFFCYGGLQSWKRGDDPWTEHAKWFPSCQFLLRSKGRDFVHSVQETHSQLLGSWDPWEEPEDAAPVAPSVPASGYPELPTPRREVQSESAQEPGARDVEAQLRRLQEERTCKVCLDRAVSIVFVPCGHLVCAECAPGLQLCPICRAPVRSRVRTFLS


Columns and labels:
[1] = target: T1, 6×His-Livin α
[2] = target: T2, 6×His-Livin β
[3] = target: T3, Livin α
[4] = target: T4, Livin β

| Protein | in vitro cleavage, Western blot with anti-Livin antibody [1] | in vitro cleavage, Western blot with anti-Livin antibody [2] | in vitro cleavage of in vitro translated protein, Western blot [3] | in vitro cleavage of in vitro translated protein, Western blot [4] |
| --- | --- | --- | --- | --- |
| caspase 8 (protein) SESQTLDKVYQMKSKPRGYCLIINNHNFAKAREKVPKLHSIRDRNGTHLDAGALTTTFEELHFEIKPHDDCTVEQIYEILKIYQLMDHSNMDCFICCILSHGDKGIIYGTDGQEAPIYELTSQFTGLKCPSLAGKPKVFFIQACQGDNYQKGIPVETDSEEQPYLEMDLSSPQTRYIPDEADFLLGMATVNNCVSYRNPAEGTWYIQSLCQSLRERCPRGDDILTILTEVNYEVSNKDDKKNMGKQMPQPTFTLRKKLVFPSD | Treatment of recombinant Livin α and β with caspase 8 had no effect even when 90 units of this enzyme were used | Treatment of recombinant Livin α and β with caspase 8 had no effect even when 90 units of this enzyme were used |  |  |
| caspase 7 (protein) AKPDRSSFVPSLFSKKKKNVTMRSIKTTRDRVPTYQYNMNFEKLGKCIIINNKNFDKVTGMGVRNGTDKDAEALFKCFRSLGFDVIVYNDCSCAKMQDLLKKASEEDHTNAACFACILLSHGEENVIYGKDGVTPIKDLTAHFRGDRCKTLLEKPKLFFIQACRGTELDDGIQADSGPINDTDANPRYKIPVEADFLFAYSTVPGYYSWRSPGRGSWFVQALCSILEEHGKDLEIMQILTRVNDRVARHFESQSDDPHFHEKKQIPCVVSMLTKELYFSQ | In contrast to the marked efficiency of caspase 7, caspase 6 was not able to cleave Livin at low concentrations (FIG. 4b) | The most efficient cleavage was observed when caspase 7 was used, resulting in the complete cleavage of the recombinant Livin β | underwent cleavage similar to the wild-type protein by caspase 3 and 7 | underwent cleavage similar to the wild-type protein by caspase 3 and 7 |
| caspase 3 (protein) SGISLDNSYKMDYPEMGLCIIINNKNFHKSTGMTSRSGTDVDAANLRETFRNLKYEVRNKNDLTREEIVELMRDVSKEDHSKRSSFVCVLLSHGEEGIIFGTNGPVDLKKITNFFRGDRCRSLTGKPKLFIIQACRGTELDCGIETDSGVDDDMACHKIPVEADFLYAYSTAPGYYSWRNSKDGSWFIQSLCAMLKQYADKLEFMHILTRVNRKVATEFESFSFDATFHAKKQIPCIVSMLTKELYFYH |  | effector caspases 3, 7, and relatively high concentrations of caspase 6, but not the initiator caspases 8 and 9, cleaved Livin β | underwent cleavage similar to the wild-type protein by caspase 3 and 7 | underwent cleavage similar to the wild-type protein by caspase 3 and 7 |
| caspase 9 (protein) MDEADRRLLRRCRLRLVEELQVDQLWDALLSRELFRPHMIEDIQRAGSGSRRDQARQLIIDLETRGSQALPLFISCLEDTGQDMLASFLRTNRQAAKLSKPTLENLTPVVLRPEIRKPEVLRPETPRPVDIGSGGFGDVGALESLRGNADLAYILSMEPCGHCLIINNVNFCRESGLRTRTGSNIDCEKLRRRFSSLHFMVEVKGDLTAKKMVLALLELAQQDHGALDCCVVVILSHGCQASHLQFPGAVYGTDGCPVSVEKIVNIFNGTSCPSLGGKPKLFFIQACGGEQKDHGFEVASTSPEDESPGSNPEPDATPFQEGLRTFDQLDAISSLPTPSDIFVSYSTFPGFVSWRDPKSGSWYVETLDDIFEQWAHSEDLQSLLLRVANAVSVKGIYKQMPGCFNFLRKKLFFKTS | incubation with high concentrations of caspase 9 resulted in a weak cleavage, suggesting that caspase 9 might cleave Livin with a very low affinity | incubation with high concentrations of caspase 9 resulted in a weak cleavage, suggesting that caspase 9 might cleave Livin with a very low affinity |  |  |
| caspase 6 (protein) AFYKREMFDPAEKYKMDHRRRGIALIFNHERFFWHLTLPERRGTCADRDNLTRRFSDLGFEVKCFNDLKAEELLLKIHEVSTVSHADADCFVCVFLSHGEGNHIYAYDAKIEIQTLTGLFKGDKCHSLVGKPKIFIIQACRGNQHDVPVIPLDVVDNQTEKLDTNITEVDAASVYTLPAGADFLMCYSVAEGYYSHRETVNGSWYIQDLCEMLGKYGSSLEFTELLTLVNRKVSQRRVDFCKDPSAIGKKQVPCFASMLTKKLHFFPKSN | caspase 6 was not able to cleave Livin at low concentrations (FIG. 4b) | relatively high concentrations of caspase 6 ... cleaved Livin β | it did not cleave any of the Livin isoforms that were translated in eukaryotic in vitro system | it did not cleave any of the Livin isoforms that were translated in eukaryotic in vitro system |
